Assay results reported in patent US7176008B2, “Process for producing activated thrombin-activatable fibrinolysis inhibitor” (Merck & Co., Inc., priority 2002, dated 2007).

Substrate: CSCC[C@H](NC(=O)[C@H](CC(C)C)NC(=O)CNC(=O)CCCCCNC(=O)CCCCCNC(=O)CCCC[C@@H]1SC[C@@H]2NC(=O)N[C@@H]21)C(=O)N[C@H](C(=O)NCC(=O)NCC(=O)N[C@H](C(=O)N[C@H](C(=O)N[C@@H](CCCNC(=N)N)C(=O)O)C(C)C)C(C)C)C(C)C
Assay: purified protein, by the assay type
Settings: other: room temperature
Method: A typical assay (75 μL) contained each studied carboxypeptidase and selected inhibitors (in 5 μL DMSO) in HBSP buffer in 96-well round bottom microtiter plates (Costar 3365 plates). Enzyme and compound were preincubated for 15–30 minutes at room temperature. […] The final substrate concentration was 15 to 50 nM. The amount of carboxypeptidase activity was titrated to result in 40,000–50,000 electrochemiluminescence counts (typically 0.02–0.1 nM, 0.01 nM, 5 nM, and 0.15–0.65 nM. for TAFIa, CPB, CPN and CPM, respectively). […] Ruthenium-labeled G2-10 (25 μL of 0.063 μg/mL) and streptavidin magnetic beads (25 μL of 0.2 mg/mL, Dynabeads M-280) were added to the quenched solution and shaken at 300 rpm for >1 hr. G2-10 antibody and beads were prepared in a BSA diluent containing 150 mM phosphate, pH 7.8, 150 mM NaCl, 3% (w/v) BSA (protease free fraction V) and 0.05% NaN3. The volume was brought to 250 μL with HBSP and read on an Igen 96-well electrochemiluminescence plate reader (M8 Analyzer) at 620 nm. […]
All measurements were performed in at least duplicates and the inhibition constants (Ki) were determined by the equation below wherein Vo and Vi are activity in the absence and presence of inhibitors, respectively. […]
Hydrolysis of substrate was measured in HBSP (pH 7.4) for TAFIa, CPB, CPM, and CPM. […]

Row | Protein | Km (HBSP pH 7.4) | Km
1 | CPB (Homo sapiens) (protein) ATGHSYEKYNKWETIEAWTQQVATENPALISRSVIGTTFEGRAIYLLKVGKAGQNKPAIFMDCGFHAREWISPAFCQWFVREAVRTYGREIQVTELLDKLDFYVLPVLNIDGYIYTWTKSRFWRKTRSTHTGSSCIGTDPNRNFDAGWCEIGASRNPCDETYCGPAAESEKETKALADFIRNKLSSIKAYLTIHSYSQMMIYPYSYAYKLGENNAELNALAKATVKELASLHGTKYTYGPGATTIYPAAGGSDDWAYDQGIRYSFTFELRDTGRYGFLLPESQIRATCEETFLAIKYVASYVLEHLY | 12 µM | –
2 | CPM (Homo sapiens) (protein) LDFNYHRQEGMEAFLKTVAQNYSSVTHLHSIGKSVKGRNLWVLVVGRFPKEHRIGIPEFKYVANMHGDETVGRELLLHLIDYLVTSDGKDPEITNLINSTRIHIMPSMNPDGFEAVKKPDCYYSIGRENYNQYDLNRNFPDAFEYNNVSRQPETVAVMKWLKTETFVLSANLHGGALVASYPFDNGVQATGALYSRSLTPDDDVFQYLAHTYASRNPNMKKGDECKNKMNFPNGVTNGYSWYPLQGGMQDYNYIWAQCFEITLELSCCKYPREEKLPSFWNNNKASLIEYIKQVHLGVKGQVFDQNGNPLPNVIVEVQDRKHICPYRTNKYGEYYLLLLPGSYIINVTVPGHDPHITKVIIPEKSQNFSALKKDILLPFQGQLDSIPVSNPSCPMIPLYRNLPDHS | – | 38 µM
3 | TAFIa (Homo sapiens) (protein) ASASYYEQYHSLNEIYSWIEFITERHPDMLTKIHIGSSFEKYPLYVLKVSGKEQAAKNAIWIDCGIHAREWISPAFCLWFIGHITQFYGIIGQYTNLLRLVDFYVMPVVNVDGYDYSWKKNRMWRKNRSFYANNHCIGTDLNRNFASKHWCEEGASSSSCSETYCGLYPESEPEVKAVASFLRRNINQIKAYISMHSYSQHIVFPYSYTRSKSKDHEELSLVASEAVRAIEKISKNTRYTHGHGSETLYLAPGGGDDWIYDLGIKYSFTIELRDTGTYGFLLPERYIKPTCREAFAAVSKIAWHVIRNV | 8 µM | –
